# Measurements as given in patent publication US7700107B2, “Synthetic immunogenic but non-amyloidogenic peptides homologous to amyloid β for induction of an immune response to amyloid β and amyloid deposits” (New York University, priority 2000, dated 2010).
# Tests used:
# [1] = Secondary structure by circular dichroism (CD); format: physicochemical
# Protocol: Secondary structure (α-helix, β-sheet, and random coil) of the peptides was evaluated by circular dichroism (CD) as described previously (Soto et al., 1998 and Soto et al., 1996). Results are expressed as molar ellipticity in units of deg cm^2 dmol^−1, and the data was analyzed by the Lincomb and CCA algorithms (Perczel et al., 1992) to obtain the percentages of different types of secondary structure.
# The experimental procedure for circular dichroism is performed according to Golabek et al., (1996) and Soto et al. (1996 and 1998) as follows: CD spectra of solutions containing synthetic peptides (1-5 μM in 300 μl of 10 mM sodium phosphate, pH 7.2) is recorded in a Jasco J-720 spectropolarimeter at 25° C. using a 0.1 cm path-length cell with double distilled, deionized water and TFE (spectroscopy grade) being used as solvents. Calibration of the instrument is performed with an aqueous solution of d-(+)-10-camphorsulfonic acid. Spectra is recorded at 1 nm intervals over the wavelength range 180 to 260 nm and buffer spectra obtained under identical conditions is subtracted.
# [2] = Thioflavin T fluorometric assay of amyloid fibril formation in vitro; format: physicochemical; conditions: incubation at 37° C., up to at least 15 days
# Protocol: Studies of amyloid fibril formation in vitro can be performed using published protocols from the laboratory of the present inventors (Castaño et al., 1995; Wisniewski et al., 1991; Wisniewski et al., 1993 and Wisniewski et al., 1994). […] In vitro fibrillogenesis was evaluated by a fluorometric assay based on the fluorescence emission by thioflavine T, as previously described by the laboratory of the present inventors (Soto et al., 1998 and Jameson et al., 1998). Thioflavine T binds specifically to amyloid and this binding procedures a shift in its emission spectrum and a fluorescent enhancement proportional to the amount of amyloid formed (LeVine et al. 1993).
# (§1) The experiments were performed as described in Example 1.
# [3] = Solubility of freshly prepared peptide solution (in nanopure H2O); format: physicochemical; conditions: at 100 μM
# [4] = system: human neuroblastoma cell line (SK—N—SH); experiment: Neurotoxicity, MTT assay; format: cell-based; conditions: for Toxicity to SK—N—SH cells (MTT): 2 and 6 days, vs vehicle; for Aggregates visible under the microscope in culture wells: during the incubation period, 10-100 μM
# Protocol: Briefly, cells were plated at 10,000 cells/100 μl culture medium per well in flat bottom, 96 well microtiter plates. The cells were allowed to attach to the plate overnight in an incubator (37° C., 5.0% CO2), and then 10 μl of freshly prepared peptide solution (in nanopure H2O) was added. […] Subsequent steps were as described in the assay protocol.
# Data Analysis: The cell culture data was analyzed by one-way ANOVA, followed by a Dunnett's test for post hoc analysis (GraphPad Prism 3.0). An unbiased stereological image analysis system (Bioquant, R&M Biometrics Inc., Nashville, Tenn.) was used to determine the amyloid burden in 6E10 stained brain sections. The data for the amyloid burden and the levels of soluble Aβ within the brain were analyzed by a Student's t-test, two-tailed.
# as §1
# Data Analysis: The cell culture data was analyzed by one-way ANOVA, followed by a Newman Keuls' test for post hoc analysis (GraphPad Prism 3.0).
Substance,alpha (secondary structure by CD) ([1]; Time 0 hr) [%],beta-sheet (secondary structure by CD) ([1]; Time 0 hr) [%],random (secondary structure by CD) ([1]; Time 0 hr) [%],alpha (secondary structure by CD) ([1]; Time 24 hr) [%],beta-sheet (secondary structure by CD) ([1]; Time 24 hr) [%],random (secondary structure by CD) ([1]; Time 24 hr) [%],alpha (secondary structure by CD) ([1]; Time 96 hr) [%],beta-sheet (secondary structure by CD) ([1]; Time 96 hr) [%],random (secondary structure by CD) ([1]; Time 96 hr) [%],"Fibril formation (thioflavin T) ([2]; Example 1, FIG. 1)","Fibril formation (thioflavin T) ([2]; Example 2, FIG. 5)",Solubility [3],"Toxicity to SK—N—SH cells (MTT) ([4]; Example 1, FIGS. 2A and 2B)",Aggregates visible under the microscope in culture wells ([4]; Example 1),"Toxicity to SK—N—SH cells (MTT) ([4]; Example 2, FIGS. 6A and 6B)",Aggregates visible under the microscope in culture wells ([4]; Example 2)
"Aβ1-30-NH2: first thirty residues of Aβ1-42 (SEQ ID NO:1), amidated at the C-terminus; control peptide",5,37,58,8,36,56,7,49,44,gradually formed fibrils over time,gradually formed fibrils over time,,,,,
"Aβ1-42: amyloid β peptide, sequence 1-42; control peptide",9,36,55,9,40,51,5,55,40,,,only partially soluble,toxic,aggregates were visible,toxic,aggregates were visible
"Aβ1-30-NH2(DD18,19): modified Aβ1-30, amidated, Asp at positions 18 and 19 (SEQ ID NO:13)",,,,,,,,,,,did not form fibrils,,,,,
"Aβ1-30-NH2(EE18,19): modified Aβ1-30, amidated, Glu at positions 18 and 19 (SEQ ID NO:12)",,,,,,,,,,,did not form fibrils,,,,,
"Aβ1-40: amyloid β peptide, sequence 1-40; control peptide",,,,,,,,,,,gradually formed fibrils over time,,toxic,,toxic,
